For 24 sequences, protein production results are on record in a protein production outcome set (Wang et al. 2014).
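Note: failed if final PepcDB status was selected cloned or expressed and not failed if soluble or beyond.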

This data set is described as follows: label from the status in PepcDB records.
“MNARVHQPVHTAQHAPSYYAATLNRRIECPPLAGEEQADVCVVGGGFSGVNTALELAQRGFSVVLLEAHQIGWGASGRNGGQLIRGVGHDVEQFLPVIGADGVKALKLMGLEAVEIVRRRVEQYAIDCDLRWGYCDLANKPGDYQGFREDMEELQALGYRHEMRLVPAAEMRSVIGSDRYVGGLVDMGSGHLHPLNLVLGEAAAAQSLGVRLFERSTVMRIDYGTEVQVHTATGKVRAKTLVLGCNAYMNDLNPLLGGKVLPAGSYVIATEPLDEKLARQLLPQNMAVCDQRVALDYYRLSADNRLLFGGACHYSGRDPSDIAAYMRPKMLEVFPQLANVRIDYQWGGMIGIGANRLPQIGRLPGQPNVYFAQAYSGHGVNATHLAGQLLAEAIGGQQSDGFDLFAKVPHITFPGGKLLRSPLLALGMAWY”: the protein production entry is listed as “failed”.
As for “MKVNILMATYNGEKFLAQQIESIQKQTFKEWNLLIRDDGSSDKTCDIIRNFTAKDSRIRFINENEHHNLGVIKSFFTLVNYEVADFYFFSDQDDVWLPEKLSVSLEAAKHKASDVPLLVYTDLKVVNQELNILQDSMIRAQSHHANTTLLPELTENTVTGGTMMINHALAEKWFTPNDILMHDWFLALLAASLGEIIYLDLPTQLYRQHDNNVLGARTMDKRFKILREGPKSIFTRYWKLIHDSQKQASLIVDKYGDIMTANDLELIKCFIKIDKQPFMTRLRWLWKYGYSKNQFKHQVVFKWLIATNYYNKRLEHHHHHH”, the entry is “not failed”; as for “MGEKVSIILTSYNKPDYLQKAIESVIQQTHDLWELFIMDDHSNAETTAVIHKYLHDRRIQYHNSFVHPADRLKTARYATLINSALPFADGDYISYLTDDTVYHPERLSRMVQEFSHKPEAQAVYSKQKVVHVNERGEEISHFYRNANAVLDQAAFQVDHCSVMHRRSLLNLIHHKFGGYWDDDMKHWNHGDAIFWARLNNFTPFLPINEVLDTTYKTPDSFQNAYRFLPADLIDGSFVKGSDQNVYFFDQGVRHPVGEKWGFLYLNRTVAVPDPYLFQYRIGKILNIPNYILVKEADHPAIFYIEAGKKRRIVDQYAFQFYQFQRKDIVTIGKEEMETLPEGPPITWKRSELIKNPPGRRLFFIEREPFLFLNGVFHPISEQVTRKFFLHQKPISASFRNIQQFPIGKPFYPVYDEIIKKLNIATELEHHHHHH”, “not failed”.
On to “MSFSFLFILTAGMVAAFNPCGIALLPSYISYLIGGETKDHSFRYAIFKGLGLGGAMTTGFLTIFVLAGLLIGGLGSALTGIFPILSLVMGILIALLGLGMLFGKHLPIKIGSFQVKPGKWSIYFYGIAYAVTSLGCTLPAFMLVVSASLNDNSVTAVIIKFIIYSLGMGIVVTAITMVSLISRQLVQKFLHNYMGSIQKIAAVVIFLSGLYMAYYWYFGSGGICTF”, for which the protein production result was “failed”.
As for “MKEDYFAEDPKFFNKKLRPKNLDEILKFLKEKFILNDEDKIILITSGGTKVPLEKIEIRNIDNFSTGKRGTLICEYFLKINKKVIFLHRKGSYIPFEYHLKDLAKMENLKVEENNIRFNLTKENERNILIDNLQNYKMYYNNLFLISYDTIFEYGFYLIEISNLLNELMINKYQNTFLLKNIYHKLKQEHNINNLLLYEIFYSTNNILNDMLLFFMSIQNKKCSEISKHQNTSYKLYYKLLLFLNLRFDVYSNNQFFINIQLFFKYIFSLLSNIIQMKEKYNIQQEEIQNIILYIQMLIKNFNSNVLQNNINEQEVIHNNININNIKEEQIIPNNIKNIHNNDNINHCDDNKINNPDNHLLNTDTYILHNNNPSCNDYNLNNLSFNINKYINEEKGKNKKTNQHISEQFLFPTHLVIMCAAASDFYIPYDEMHENKIDSNYSPLSIQLCLTPKFYKIINSHFPLLKYCIFKLEDEEKILIDKSNERIKYTDLLIANLLTQRYDYVYIFKKQFEYVLLKKSNSEQIENDICYEICKHFSIL”, the entry is “failed”; as for “TVSQLRSRITRFALAGRGMRETVTWSFISEKQALAFGGGQAQLKLVNPISADMSVMRPSLLPGLLVAAQRNADRGFPDFALFEVSNIYEDDTPDKQHRVAGGIRRGTEQFGGAGRFWNGNARAVDVFDAKADALAVLEACGLESGKVQIEVGAPDWYHPGRSGVIKLGSKIILGFFGVFHPATLEKLDISGPLCGFEIFLDRIP”, “failed”.
As for “MGHERDWSLVQVALTDITARKKAEAYLEYLGKHDVLTKLHNRAFYSDELNRLERSALRPVSAIVIDLNGLKEANDKLGHDAGDALLRRVGEVLNGVVTAPNHAARIGGDEFAILLPGADKQVAAAMVDTVYELLKINNQFYSSAPLSLSLGVATTEAGETMESLVRRADMNMYEQKNAYYAALRNRSADNNDTTKGLEHHHHHH”, the entry is “not failed”.
On to “NALHIINMVGTRNATDYGKHICVSFLQELQMLCPDVLVVSGLAYGIDINAHRSALSVELPTVGVLAHGLDRIYPSLHRKTAIDMLRQGGLLTEFLSGTNPDKHNFISRNRIVAGISDATIVVESAAKGGSLITADIAGSYHRDCFAFPGR”, for which the protein production result is recorded as “failed”.
Next, “ADSPVLMVYGLDQSKMNCDRVFNVFCLYGNVEKVKFMKSKPGAAMVEMADGYAVDRAITHLNNNFMFGQKMNVCVSKQPAIMPGQSYGLEDGSCSYKDFSESRNNRFSTPEQAAKNRIQHPSNVLHFFNAPLEVTEENFFEICDELGVKRPTSVKVFSGKSERSSSGLLEWDSKSDALETLGFLNHYQMKNPNGPYPYTLKLCFSTAQHAS”: “not failed”; “MSRPADKPQPFYFAYGSNMNPAQIEARCRKPEVVATARLPDHRLGFFGSSKIWDGGEESAQPEPGADLWGVVYRLSFHDAEILDTWQKVWLDGTGPYFHFPTQVFDAEGRNYPVLLYKRDVLGPRQKPSAPYLDHIIAGAMARALPPPYIDLLRAIPTCQASTPVPRKASFNPEFFAGLACQCGDLEHHHHHH”: “failed”.
Consider “MNNRELGRWQEHKHIGDYGWGIILCVIILCCIGMWAVYYACLHDLKVIDPVRTTMMQCLWYLVGALIATTMLHLSEKQLMQWAPIGYSIGMLLLILLLVLYSREYYVQTGAKSWFAIGTLTFQPVEVMKPLYILMMGRLIVQDQQWGPHNNFNADWRLTRRLVIYTFPIIVALKIINDFGTTLVFLTIFIGMLIVSPCRFSFLWRVLLVAGSIGVVLILLATSSTGQSLLSHIGFKLYQFDRINTWLNPSNGVSDQSYQLWQSMRAVGVGGLTGNGVTHNAVYVPVRESDMIFSVVGETTGFIGCSVLLIVYMYLFYLIFRSAFASRRRFYVYVSTGVAVMLAFHMFENIGMTIGLLPLTGIPLPFVSQGGSAIIGDFMGVGLVLATQYPNVRSIFSVPRIFH”, for which the protein production result is given as “failed”.
As for “MQIYQLSGRNVEVTEPMREYVEEKLSRLDRYTDQITDARVTLTVRDVRNNERRNRVEVQLNVPGGIIRAEEHHADMYAAIDKASDVLERQLRKFKTRYMKQRQEGRPEPLPGPAEAEVNAQGSGAAMDDVSEFHPEIVRQKRFELRPMSAEDAVVQMEALGHDFYVFQDLQGQTGVVYRRRDGHYGLIGSS”, the entry is “failed”; as for “MFSRVPQPLAFAEALLAQFGALSRETDITALLGGFARAVGELSGCELSQLYLLDQTHTALTLNAECRDGLLQALEPSSLPADYTGEQLLQFALCQNRVVSLVDLPSRLHETGFLPAGEQPWLSLLCVPLVSPEKTVEGMVVCATRRPLDLQGFAHPLGQLGSFVLAQLHLLQRLSQPSGE”, “not failed”.
As for “TPVVFLGAGNLATNLAKALYRKGFRIMQVYSRTEESARTLANEVEAEYITDLKDVSNEARLYIISLKDAAFVELLPQITDGKQHALLVHTAGSIPMNIWEGHAERYGVFYPMQTFSKQREVDFREVPFFIEAKRPEDTELLKAVAGTLSDKVYEAD”, the entry is “failed”; as for “MRCRFPYDGKQRIILEEGYPVYECNKFCGCSRTCQNRVLQNGIRAKLEVFRTESKGWGLRACEHILRGTFVCEYIGEVLDQQEANKRRNQYGNGDCSYILDIDANINDIGRLMEEELDYAIDATTHGNISRFINHSCSPNLVNHQVIVESMESPLAHIGLYASMDIAAGEEITRDYGRRPVPSEQENEHPCHCKATNCRGLLS”, “failed”.
Next, “MKNLYILIFACLAISAQGQQLLNSDFENWTNHPGSGGYSSYDEADNWASGNAAVNIAPGLTPPTTKTTDAQHGNAAVKLTTQSIFGQIAAGNLFTGKFQLNLSNPVKSVQMGIPYVSRPSAFNVYYKYAPVNGDSCAIYVLLTKYNTSTKKTDTIGRGHFSSTANVSVYTLLHIPVTYTSTAAPDSIAMVFTSSADGGNFRGQVGSSLTVDNFSLEFEELSIATSLAAVSAVLYPNPAQSRVALSNAPSESGTVYFYNVAGKLVSSQKWTGTVSPEFALDNMPAGFYTCKFITSDTAVFSGKLLITE”: “failed”; “MIEIKQVKTQDEVNYTFVEKLMHTAFPQEERRDTVQQREYSDNNPRFCNNIILENGNSIGMISYWTMGDFYYIEHFAIDPSLRNGGYGKRVLEMIKKQLKGPIVLEVEEPNDEMSTRRIHFYKRLEFTLHKKPYIQPPYRKGDSGLPMLLMTYGDIDMESDFEKVKKTLYKEVYGQEI”: “not failed”.
Consider “MDMTYNMRNAMASSRNMEEPQYDMSTIDLTQNSMNTNYLMNGSVLTNAYNNDYIVNNRDKYTGDMISQLKIDQGIPTYSHTLPMNGTTLADTNDSLNIQGMMRTNMDTTGFDGYSHIMNYNNTQNTIQTNPITYRMEDYNNLNNDVMYINPTTGEKFSAEYVNNIPTNDSDNMLYSNNFKNNSINMNTLLNSHYNNLPYPMPIYESMNNPQMYMQHMNQKQTVNIPLQHGEKKSAARNISTVNKRRIKTKKFFPCC”, for which the protein production result is reported as “failed”.
As for “MDKIRSLRFFIATLEGGSFAAAAKAYGTDPSTVSKAIHRLESDLGIQLFQRSTRQIRLTEAVRRYANTARFVLDELAACEDSLKSHNDALSGLLKINVPVSYGRLYIRPLLKEFCRRYPSITIDIHYDDAYVDIIEQGIDVSIRSGVVQDSQLIVRQLSPIDFIICGSQDYLTRHGVPSGPDAFNDHSWVRFRFKQTGKLLPIRMPEPDGTSEYNPERNFIVNDGESMAELCAEGLGLTQIPHFIARDWLKVGRLVPIFPSMRQAGNGVYLLYANREYVPARVRVFIDFITQAIQDMDETPFHTWAETLPIYQPNQGD”, the entry is “failed”; as for “MPKVYNSIVVDAPVERVWSRIRNFHDFSWAPSLIKSCKKVGGGGGYSVGARRLLNGEFLDTLIAYSEIERRIMYSMDEGPSPVSSGEIYNYVGNLHLLPVTIDDTTFVEWSGSWESASTEAVEYMNTVYRSLLADLAAEFTSESRRSEWIDQLEHHHHHH”, “not failed”; as for “MDKQQRGIQVIRIWLGVTMLIHGVMKVTSLEDTLAFFASIGLPSLFVYGVAAIELIGGLFMIIGFLIPLVSVGFIAVLVGAIFSFGLASGFSGYEYELFLAITSLAILVSYADKKYLTLKLYF”, “failed”.
As for “MDQSTLRHRITDQFSYRGERADIWRAFDLLFDTDEFLNLGYSEWYQPHIAGSSQRRLVTEVGSRVASHLPTTDGVRLLDVGCGRGGPALHLAYQFGFNVTGVDLVPYNIQMATENARGKHLDSEFIIGDATQLPFTRDSFTACTAIDALVYLPERNRVFATVADTLEPEGVLVVSDLVMQSDVTETERRLVDSFADAWDMPSLGTVEGYKAALDETSFELKAVEDITKHSVGRFRKWTTLYLQLLTSPLRALIERLLGAYDLDPPAITEQVRKAHHALPFLRHVIFVAELETT”, the protein production result is on record as “failed”.
As for “MMKRVNSHGSDYWRKNGCDFTDHRAFAPVKILDVAQIKENPMSEQIELIRLAIFFSVLVICALWESNRPRKTLSQSKRVRWLNNLGLVGFNSLLITALMPILAFSAAQWAQSQQFGLLYWLEIPPFIALFVAVVLLDAVIYWQHLLFHRIPLLWRLHRMHHADQDIDVTTGSRFHPLEIMISAWIKIGAVTLLGASPLAVVVFEILLNASAMFNHSNAKLPYKIDQWLRLLVVTPDMHRVHHSVLVHETHSNFGFFLSIWDKMFHTYIAQPEMGHERMKIGLPLFRQAREQWLDKMLTQPFRER”, the entry is “failed”; as for “MKFISTSLLLMLLVSSLSPVQGVLEVYYTSLRCRCVQESSVFIPRRFIDRIQILPRGNGCPRKEIIVWKKNKSIVCVDPQAEWIQRMMEVLRKRSSSTLPVPVFKRKIP”, “failed”.
